Data on six sequences can be found in patent publication US20180084767.

Test in all cases: cell_activity
Series [1] concerns ssTTN 5.1 L TALEN (Xanthomonas (engineered)?). Particulars: as pair with 5.1 R; TALEN mRNA transfected.
For series [2], the system named is ssTTN 5.1 R TALEN (Xanthomonas (engineered)?). Particulars: as pair with 5.1 L; TALEN mRNA transfected.
In series [3] the test system is ssTTN 3.1 L TALEN (Xanthomonas (engineered)?). The note with it: as pair with 3.1 R; TALEN mRNA transfected.
The subject of series [4] is ssTTN 3.1 R TALEN (Xanthomonas (engineered)?). The note with it: as pair with 3.1 L; TALEN mRNA transfected.
Series [5] relates to ssBAG3 4.1 L TALEN (Xanthomonas (engineered)?). The note with it: as pair with 4.1 R; transfected cells.
Series [6] deals with ssBAG3 4.1 R TALEN (Xanthomonas (engineered)?). The note with it: as pair with 4.1 L; transfected cells.

Regarding “CAGTCATGCAATTTT (double strand) [ssTTN 5.1 L site]”, the activity in series [1] was 44.9 % editing.
In series [2], “CCAATTCCCAAGTAAT (double strand) [ssTTN 5.1 R site]” displayed an activity of 44.9 % editing.
Regarding “GTCATATCCATAAAAAAC (double strand) [ssTTN 3.1 L site]”, the activity in series [3] was found to be 60 % editing.
The sequence “GTCCTAACATTTTATAT (double strand) [ssTTN 3.1 R site]” showed an activity in series [4] of 60 % editing.
With “TGAAGGCAAGAAGACAGAC (double strand) [ssBAG3 4.1 L site]”, the activity in series [5] was 21.3 % editing.
In the case of “TGGTCAAATACTCTTCTAT (double strand) [ssBAG3 4.1 R site]”, in series [6], the activity was 21.3 % editing.
